Target: T1, HTP-3 (G490K, G728K), Strep-tagged (C. elegans), O01820
T1 chain: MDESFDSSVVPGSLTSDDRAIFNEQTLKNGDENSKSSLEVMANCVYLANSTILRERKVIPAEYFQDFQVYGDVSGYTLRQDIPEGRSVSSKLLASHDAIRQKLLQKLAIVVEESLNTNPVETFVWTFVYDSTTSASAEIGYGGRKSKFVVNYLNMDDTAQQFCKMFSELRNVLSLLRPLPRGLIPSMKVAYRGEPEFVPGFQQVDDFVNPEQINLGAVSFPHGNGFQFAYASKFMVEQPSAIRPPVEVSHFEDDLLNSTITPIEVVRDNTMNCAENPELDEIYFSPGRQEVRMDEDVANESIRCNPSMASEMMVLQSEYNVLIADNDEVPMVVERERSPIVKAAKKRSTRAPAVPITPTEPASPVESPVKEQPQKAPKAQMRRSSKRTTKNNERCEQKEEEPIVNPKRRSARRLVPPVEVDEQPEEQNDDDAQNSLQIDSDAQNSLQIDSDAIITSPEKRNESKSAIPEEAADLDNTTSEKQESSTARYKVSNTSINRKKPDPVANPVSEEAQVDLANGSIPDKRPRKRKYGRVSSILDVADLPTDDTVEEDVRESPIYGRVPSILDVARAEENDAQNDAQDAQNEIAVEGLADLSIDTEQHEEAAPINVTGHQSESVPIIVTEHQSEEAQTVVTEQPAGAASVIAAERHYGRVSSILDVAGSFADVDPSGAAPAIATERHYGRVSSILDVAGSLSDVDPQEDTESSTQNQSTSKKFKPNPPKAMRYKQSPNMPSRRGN
Assay: pull-down
Details: remark: other sources report otherwise

B1: HTP-1, untagged, Q20305 1-352 (natural protein)
chain: MAPLETIYDESLNKSADSIDDKKWSKLFPRIVSDPDRSSNFMTRAIYVAFSAVLRNRNILGQEYFTKNYITEKLKCMTLCFRNPRSNQIAQLLRNAGDATKDGFLKEVSLVITNNEGDLEAIEVFSMKFIYFENGGVVARLSTDKNGQEDPHFAKLAQLVYEGGDSVRDQMVTIVRSVQFLCTKVLEPLPEEFTANFRLEYTNDAPSNFRIDGFEDSSTFYTLPDDIQSATIGHLRPGCHAANMECWSMLMSDSYEAELTLKRHLDKVSDRHGFNPVNVLYKSFNSEDSDTSLSQATTESVNDQGGNETSPVDDITESLEKAQMSPIQTRPTTRRGADGSKTRSSPYSRSCK
Q: B1 was tested. Which HTP-1 bound, percent of the amount bound to the wild-type complex did it give?
A: 10%

— article PMC4624198
